Reference: the supplement of paper PMC12764529
± gives the half width of the 95% confidence interval.

Assays:
[1] = folding stability dG unfold from chymotrypsin proteolysis; higher = more stable
How it was run: (§1)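 Bayesian fitting of sequencing counts gave K50 for each design. Unfolding free energy followed by setting this against a sequence-predicted unfolded-state K50 and a shared folded-state K50, either per protease or with trypsin and chymotrypsin combined. The designs, under 80 residues and lacking cysteine, were digested in a PA-tagged cDNA display format at 11 threefold-diluted protease concentrations and without protease, and only those with AlphaFold2 dimer inter-PAE above 15 were kept.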

[2] = folding stability dG unfold from trypsin proteolysis; higher = more stable
How it was run: as §1

[3] = folding stability dG unfold (combined trypsin and chymotrypsin); higher = more stable
How it was run: as §1

| Sequence | folding stability dG unfold [1] [kcal/mol] | folding stability dG unfold [2] [kcal/mol] | folding stability dG unfold [3] [kcal/mol] |
| --- | --- | --- | --- |
| SAGGSAGGSAGMVTRRMTPEEAEKFIADLPSDWSVEEISPLPENDIVEIKIKVEPPFKLQSAGGSAGGSAGG [r17_98_JUSTAS] | 1.76 ± 0.035 | -0.199 ± 0.09 | 1.28 ± 0.097 |
| SAGGSAGGSAGMVVSVDRATGTFTATDPALGTTTTVPGSEEEVRAYWAERFPDRPVTITASAGGSAGGSAGG [r11_614_JUSTAS] | -0.221 ± 0.38 | -0.00347 ± 0.076 | -0.0207 ± 0.15 |
| SAGGSAGGSAGMYVYKITYPTPSGGASEKLYPSSVPLEEVLKEAEERGAVEIEILPESELSAGGSAGGSAGG [r11_490_JUSTAS] | 0.151 ± 0.19 | 0.103 ± 0.1 | 0.115 ± 0.23 |
| SAGGSAGGSAGNDVINKKYTYTITETTEEKTPTDDPVSTTITTPIEITVKAPKDEVVIPDSAGGSAGGSAGG [r11_174_JUSTAS] | 0.644 ± 0.25 | -0.6 ± 0.15 | 0.31 ± 0.22 |
| SAGGSAGGSAGNSVTILPIPETDKYLVVVSDNSGKFTVFDVDSSDLEDVVKALPSNYTVTSAGGSAGGSAGG [r11_569_TrMRF] | 1.13 ± 0.051 | 0.881 ± 0.025 | 1.04 ± 0.048 |
| SAGGSAGGSAGPDKPIYVMIKFEHPGRKYTHSFEFDSPEDIEEVLDRLPPGYEIKEVEIFSAGGSAGGSAGG [r17_410_TrROS] | 0.946 ± 0.25 | 0.0221 ± 0.1 | 0.482 ± 0.2 |
| SAGGSAGGSAGPEIELREDSLVIRVKAKEGEVIGVPEGLEVEGVVYDPSTGELTVVVRAPSAGGSAGGSAGG [r11_942_TrMRF] | 1.73 ± 0.096 | 2.31 ± 0.23 | 1.83 ± 0.21 |
| SAGGSAGGSAGPEILIVVESEEEAKKLAEELARALREAGLPEDAKIKIKIIVLPKEELEKSAGGSAGGSAGG [r17_180_TrROS_Hall] | 2.33 ± 0.048 | 1.76 ± 0.062 | 2.12 ± 0.066 |
| SAGGSAGGSAGPGVLILRRRFVRPRLIPNTGKLYYEEVELTTNLPIGPIPPNWLNNPNGVSAGGSAGGSAGG [r17_493_TrMRF] | 0.0547 ± 0.11 | -0.0517 ± 0.15 | 0.0971 ± 0.14 |
| SAGGSAGGSAGPITVPPGAVLLSVEEEGERTRVTVRLPGSGVVETYTFEPGEPVVVELPGSAGGSAGGSAGG [r11_774_JUSTAS] | 2.941 ± 0.016 | 2.27 ± 0.053 | 2.75 ± 0.043 |
| SAGGSAGGSAGPITYRLEIRYEIERIEVRVYPGPEGPLVGEFRIEVRLEVRVEALPPEETSAGGSAGGSAGG [r11_24_TrMRF] | 4.88 ± 0.12 | 3.69 ± 0.17 | 4.53 ± 0.16 |
| SAGGSAGGSAGPIVLIKIKNKNGKEIEIEMSLEELKKKLPKELKNMKVEIVEVKEVKVEKSAGGSAGGSAGG [r11_353_TrROS_Hall] | 0.315 ± 0.14 | 0.351 ± 0.088 | 0.56 ± 0.27 |
| SAGGSAGGSAGPIVYPYGKYLVVYNPETGALVVVELDPDGKVKKVVVFGKDGPLVELDDASAGGSAGGSAGG [r17_385_TrMRF] | 3.369 ± 0.022 | 2.76 ± 0.067 | 3.14 ± 0.047 |
| SAGGSAGGSAGPKILSIEEYDPENGYITVIAELTGKPVRMKVKFIPGKKEIKIIEIEPLDSAGGSAGGSAGG [r11_1066_TrMRF] | 2.49 ± 0.036 | 1.81 ± 0.07 | 2.36 ± 0.1 |
| SAGGSAGGSAGPKPPPVYRLRIVNPDGEVYEFEVPADMSPEEIAKRLGLPPGARVELEKVSAGGSAGGSAGG [r11_340_TrROS_Hall] | 3.35 ± 0.081 | 2.59 ± 0.17 | 3.28 ± 0.28 |
| SAGGSAGGSAGPKVVLVPVKVVQKLLGVKIPENSRVLVLLEKDKVKAVLVFPVLPSPENPSAGGSAGGSAGG [r11_616_TrMRF] | 1.55 ± 0.07 | 1.26 ± 0.12 | 1.54 ± 0.17 |

| Sequence | folding stability dG unfold [1] [kcal/mol] | folding stability dG unfold [2] [kcal/mol] | folding stability dG unfold [3] [kcal/mol] |
| --- | --- | --- | --- |
| SAGGSAGGSAGPLSTVTETTTTVPLPNGEVLTVTTYTYPDLGVTTVTTTYPDGTVTTTTIPVSAGGSAGGSA [r18_88_JUSTAS] | 2.544 ± 0.011 | 2.3 ± 0.077 | 2.47 ± 0.041 |
| SAGGSAGGSAGPPNVKLTFTIMIMEMKMEPPPDGNPKMEMVMVPIEIEITAPPGDEITAISAGGSAGGSAGG [r11_174_TrROS] | 4 ± 0.44 | 2.41 ± 0.2 | 2.93 ± 0.39 |
| SAGGSAGGSAGPPPIEELLEQAKKNPNRPITIRNPGGYYIRITVKPDPNGKPEVEIEPVPSAGGSAGGSAGG [r11_300_TrROS] | 0.336 ± 0.25 | 0.259 ± 0.09 | 0.263 ± 0.16 |
| SAGGSAGGSAGPPVTLDEIRDHLPPENIEDVEVNPPEGWVVIEFKPPGGEKQEITIRADDSAGGSAGGSAGG [r17_374_TrROS] | 0.271 ± 0.021 | 0.198 ± 0.062 | 0.277 ± 0.13 |
| SAGGSAGGSAGPTLTLTLPPGKLSPEFLEALAAQGYTLGEVTVTEVPEDDTVVVTVTTAPSAGGSAGGSAGG [r11_345_JUSTAS] | 0.623 ± 0.12 | 1.4 ± 0.069 | 1.1 ± 0.069 |
| SAGGSAGGSAGPVVISIPETNTLVVLAPLPDDRVLADVFQFDPTTPEPTVFTVPAENISFSAGGSAGGSAGG [r11_285_TrMRF] | 0.335 ± 0.13 | 0.76 ± 0.024 | 0.565 ± 0.099 |
| SAGGSAGGSAGPYVVTIELPSGERIEVAVPAERLEEHVEELKPLVEPARITVRPVAPDALSAGGSAGGSAGG [r11_103_TrMRF] | 0.477 ± 0.018 | 0.143 ± 0.02 | 0.376 ± 0.053 |
| SAGGSAGGSAGRMLVIEIEMPGRKRTFMIPTPDGPPIKAEELADKLGFDNVTVKIHPIDDSAGGSAGGSAGG [r11_219_TrROS] | 0.261 ± 0.31 | -0.12 ± 0.55 | 0.0664 ± 0.16 |
| SAGGSAGGSAGRRRVFFTPDGTLIVVDELPDFVRVTRYRITPGFPRIEPVDTRVLPPGALSAGGSAGGSAGG [r11_844_TrMRF] | 2.94 ± 0.086 | 1.11 ± 0.18 | 2.25 ± 0.16 |
| SAGGSAGGSAGSITFTVPASEFTEEEILERLVEELGIPREKVDLVEIKETPDGKLKVTIKIPSAGGSAGGSA [r18_118_JUSTAS] | 2.488 ± 0.021 | 2.86 ± 0.085 | 2.63 ± 0.06 |
| SAGGSAGGSAGSITLPDGLTLTWNPATNTLTITLTAPPPPTTTTTTKPAATTTTTTTTTTSAGGSAGGSAGG [r11_331_TrROS_Hall] | 1.77 ± 0.092 | 2.18 ± 0.086 | 1.87 ± 0.14 |
| SAGGSAGGSAGSIVLTKTEILPGPENRPIIKTTIYKPPGPITITYPGGDPSKLVIETNSGSAGGSAGGSAGG [r17_64_JUSTAS] | -0.331 ± 0.37 | 0.247 ± 0.032 | 0.0213 ± 0.28 |
| SAGGSAGGSAGSIVTIPIAGLSPEEAEALIKEAIAAGEDKPIILVDEDGTPTVVPASELKSAGGSAGGSAGG [r11_541_JUSTAS] | -0.408 ± 0.035 | -0.189 ± 0.052 | -0.242 ± 0.079 |
| SAGGSAGGSAGSKTIEVVIPVKPNELTPEQAENLIKPFFPDAKIEVTPEGNYLVVKVEVSSAGGSAGGSAGG [r11_7_TrMRF] | 0.334 ± 0.067 | 0.475 ± 0.11 | 0.366 ± 0.18 |
| SAGGSAGGSAGSKTPSVLVIEVDANTSIEKILELYKKNYPVGEIRVFTRPDGRKIAVITGSAGGSAGGSAGG [r11_97_TrMRF] | 2.33 ± 0.069 | 2.22 ± 0.028 | 2.31 ± 0.12 |
